The source of these data is paper PMC8203317 (Journal of immunology (Baltimore, Md. : 1950), 2020).

One test addresses Paxillin (UniProt P49023). Conditions: cited from earlier work.
Test [1] has as its target human Kindlin-3 F0 (1-105), GST tag removed (human, UniProt Q86UX7 1-105). Kind of test: NMR titration.

Chain of human Kindlin-3 F0 (1-105), GST tag removed (Q86UX7 1-105): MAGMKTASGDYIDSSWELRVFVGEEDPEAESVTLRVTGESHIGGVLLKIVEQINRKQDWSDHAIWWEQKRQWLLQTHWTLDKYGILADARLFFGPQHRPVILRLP

Take Kindlin-2 (from UniProt Q96AC1): the dissociation constant (Kd) with Paxillin was 201 µM.

B1: human LPXN LIM4 (324-386), 15N-labeled, GST tag removed (domain or fragment, UniProt O60711 324-386, looked up)
chain: RRGTLCHGCGQPITGRCISAMGYKFHPEHFVCAFCLTQLSKGIFREQNDKTYCQPCFNKLFPL
modifications: also: 15N-labeled
On to B1, for which, in test [1], the affinity, expressed as Kd, was 192 µM.

B2: human PXN (paxillin-γ) LIM4 (541-605), 15N-labeled, GST tag removed (domain or fragment, UniProt P49023-3 541-605, looked up)
chain: YHERRGSLCSGCQKPITGRCITAMAKKFHPEHFVCAFCLKQLNKGTFKEQNDKPYCQNCFLKLFC
modifications: also: 15N-labeled
For the molecule B2, in test [1], the Kd was found to be 117 µM.

The term Kd denotes a measure of binding affinity in units of concentration.
